Test results as given in article doi:10.1101/2020.03.31.018150.

Tests used:
[1] = target: Retromer (His10-SNAP-VPS26/VPS35/VPS29 trimer, AF488-labeled) (human) (UniProt O75436)
[2] = target: Retromer (His10-SNAP-VPS26/VPS35/VPS29 trimer, AF488-labeled) (human) (UniProt O75436); remark: listed apart in the source

- percent of particles that are dimers [1]: 35%
- percent of particles that are monomers [1]: 18%
- percent of particles that are pentamers or higher-order oligomers up to ten [1]: 10%
- percent of particles that are tetramers [1]: 13%
- percent of particles that are trimers [1]: 24%
- mean Retromer complexes per cluster (Retromer complexes per cluster) [2]: 2.7
Substance: Retromer (His10-SNAP-VPS26/VPS35/VPS29 trimer, AF488-labeled) (from UniProt O75436;Q96QK1;Q9UBQ0) (complex)
